{
  "source": "paper PMC7065271",
  "about": "(Chemico-biological interactions, 2020)",
  "proteins": {"B1": {"name": "Torpedo californica acetylcholinesterase tetramer (enzyme, UniProt P04058-2 22-596, looked up)", "chain": "DDHSELLVNTKSGKVMGTRVPVLSSHISAFLGIPFAEPPVGNMRFRRPEPKKPWSGVWNASTYPNNCQQYVDEQFPGFSGSEMWNPNREMSEDCLYLNIWVPSPRPKSTTVMVWIYGGGFYSGSSTLDVYNGKYLAYTEEVVLVSLSYRVGAFGFLALHGSQEAPGNVGLLDQRMALQWVHDNIQFFGGDPKTVTIFGESAGGASVGMHILSPGSRDLFRRAILQSGSPNCPWASVSVAEGRRRAVELGRNLNCNLNSDEELIHCLREKKPQELIDVEWNVLPFDSIFRFSFVPVIDGEFFPTSLESMLNSGNFKKTQILLGVNKDEGSFFLLYGAPGFSKDSESKISREDFMSGVKLSVPHANDLGLDAVTLQYTDWMDDNNGIKNRDGLDDIVGDHNVICPLMHFVNKYTKFGNGTYLYFFNHRASNLVWPEWMGVIHGYEIEFVFGLPLVKELNYTAEEEALSRRIMHYWATFAKTGNPNEPHSQESKWPLFTTKEQKFIDLNTEPMKVHQRLRVQMCVFWNQFLPKLLNATETIDEAERQWKTEFHRWSSYMMHWKNQFDHYSRHESCAEL"}},
  "molecular_target": "the molecule itself",
  "experiment": "SEC",
  "data": [
    {"protein": "B1", "values": [
      {"measurement": "stoichiometry N", "result": 4}
    ]}
  ]
}
